Test: soluble on expression in E. coli; label from the status in PepcDB or PDB records

Sequence | soluble on expression in E. coli
MKIVIIGGFLGGGKTTVLNHLLAESLKESLKPAVIMNEFGKMSVDGALVSEDIPLSELTEGCICCAMKADVSEQLHQLYLKEQPDIVFIECSGIAEPVSVLDACLTPILAPFTTITHMIGVIDASMYKHIKSFPKDIQGLFYEQLAYCSVLFVNKIDSADVETTSKLLKDLEVINPEADIQVGMHGSVTLPISVRQMTATSDNKHESLHKTINHQFVQSPVTCTKAEFIKRLACLPSHIYRLKGFMTFEDTTHTYLIQFTQGQYELTPVAFSKKVPEYLVLIGKGISKEDYQCLEQLEHHHHHH | not soluble
MGKFSKIKKVQEEESAHQKMEWEAAGAKDSSSDDSSDESDNDDQPKQATEETRKRAELWTNRERVLVLCSRGADVRTRYLMKDIKDLLPHAKGDSKLDQQKSLNVLNEIAEMKNCTKVMYFESRKRKDTYLWMSNVEKGPSIKFLVHNVHTMKELKMSGNCLRASRPVLSFDDAFDKKPQLKLIKAVLMQTLGTPHHHPRSQPFVDHVFNFSVGEGDKIWFRNFQIVDESLQLQEVGPRFVLEMVRLFAGSFEGAVLYDNPNYVSPNVIRREHRKGQHSYIEKQLAVKASNIKQAKVTEILAEKTVDLVGKEFDTQNNAAADSEAAAQITAQIEKRRVRKKKSQASKYTGSD | soluble
SLKEVLESKLNDRPDANVLIGLGRNISGEAVLAELNKMPHLLVAGATGSGKSVCVNGIITSILMRAKPHEVKMMMIDPKMVELNVYNGIPHLLAPVVTDPKKASQALKKVVNEMERRYELFSHTGTRNIEGYNDYIKRANNEEGAKQPELPYIVVIVDELADLMMVASSDVEDSITRLSQMARAAGIHLIIATQRPSV | not soluble
MSLLSRSVKRELVGKSAQMEQIRSHVAQYALLNRHVVIVGESGCGRHTIAYLIHQLTTNNGHLPWVELVASAKTEWSTVEPKVQESAGGTLLIDHIELLSEEVQRNVVQSLLNQERLNRPRTRVIAVIDQPPEQLIAQNQLLPELYYLLNQGQIDVPLLRQRPDDIAALFHYFLKQSCYKLGKPMPNVEPHYLALLRAHQWPGNVRELRNVAELYAIGIVKLAGKERLYNQEEMLSPLDELVDDYEKQVIEDALFLFSGRVADAANYLQVPRKKLYLRMKKHGLEKDAFKAREGHHHHHH | not soluble
MNRRMMLASAALLLAPLAAQAQTRDVSVTIYNSNLALVEDARPLDLKAGRQKLEFKDVSAAIRPETVSLSAPGVTILEQNFDYDLLTPDKLMEKAVGQKVKIVRTNPGDGKETTEVATVLAANQGVVLKIGDRIEVLRDDGVPTRVIFDKVPETLRARPTLSVSVEAAGAGTRQAKLSYLTSGLSWKADYVALFDEAKSTMDLQGWITLSNNSGTPFENARTQLVAGDVNQLNDGGYRSSRSPGMISAGTESGVGERVADYYVYPLPERTTIASNQNKQVGFLSAQGVTAKKVYEVREGWFTSQAEPTKAVVAIQFSNARLAGLGAQLPMGTMRVYMRDAAGDPKFVGENAIGHTPAGSELSIKTGEAFDVSGQATLVAESRVSKRLTRYEMKYLLRNAKDQPVTVELRQGGLGRDSTVKAESLKGRRIDAGTLGWSVPVPANGETVLTFTVETGWLEHHHHHH | soluble
MSLQKVKLPLTLDPVRTAQKRLDYQGIYTPDQVERVAESVVSVDSDVECSMSFAIDNQRLAVLNGDAKVTVTLECQRCGKPFTHQVYTTYCFSPVRSDEQAEALPEAYEPIEVNEFGEIDLLAMVEDEIILALPVVPVHDSEHCEVSEADMVFGELPEEAQKPNPFAVLASLKRKEGGSHHHHHH | soluble
MGFDLFGKIEDILKELPQDKEASVEDFEEERIKNCVPRIHKELREGFSPLEAGVLPYAISLNKGCYVGQEAIARVYFRGRTPRVLTKFEVIEQVKEEEKILEGNKAIGLITSVSPSGKMALGYILRAKFEKGKEYQTESGKVKAKGVCEDGSTLEHHHHHH | not soluble
SSAKSAISKEIFAPLDERMLGAVQVKRRTKKKIPFLATGGQGEYLTYICLSVTNKKPTQASITKVKQFEGSTSFVRRSQWMLEQLRQVNGIDPNGDSAEFDLLFENAFDQWVASTASEKCTFFQILHHTCQRYLTDRKPEFINCQSKIMGGNSILHSAADSVTSAVQKASQALNERGERLGRAEEKTEDLKNSAQQFAETAHKLAMKHKC | soluble
MSPTTDRIAVVGGSISGLTAALMLRDAGVDVDVYERSPQPLSGFGTGIVVQPELVHYLLEQGVELDSISVPSSSMEYVDALTGERVGSVPADWRFTSYDSIYGGLYELFGPERYHTSKCLVGLSQDSETVQMRFSDGTKAEANWVIGADGGASVVRKRLLGIEPTYAGYVTWRGVLQPGEVADDVWNYFNDKFTYGLLDDGHLIAYPIPGRENAESPRLNFQWYWNVAEGPDLDELMTDVRGIRLPTSVHNNSLNPHNLRQFHSKGESLFKPFRDLVLNASSPFVTVVADATVDRMVHGRVLLIGDAAVTPRPHAAAGGAKASDDARTLAEVFTKNHDLRGSLQSWETRQLQQGHAYLNKVKKMASRLQHGGSFEPGNPAFAFGLPKVDEPSVVTNS | soluble
MGILFTRIWRLFNHQEHKVIIVGLDNAGKTTILYQFSMNEVVHTSPTIGSNVEEIVINNTRFLMWDIGGQESLRSSWNTYYTNTEFVIVVVDSTDRERISVTREELYKMLAHEDLRKAGLLIFANKQDVKECMTVAEISQFLKLTSIKDHQWHIQACCALTGEGLCQGLEWMMSRLKIRLEHHHHHH | soluble
MGSDKIHHHHHHMIAKIIMGGGKMIKRVKTGIPGMDEILHGGIPERNIVLISGGPGTGKTIFSQQFIWNGLQMGEPGIYVALEEHPVQVKKNMEVFGWNVDPFEKEGKFAIVDAFTGGIGEYAEKEKYVVRDIDDVRELAEVLKRAVRETQAKRVVIDSVTTLYITKPAMARSIIFQLKRILSGLGCTSLFVSQVSVTEKGFGGPGVEHGVDGIIRLDLDEIDGELKRSLIVWKMRGTSHSMRRHPFEITDKGIVIYPSEGGEGR | not soluble
MSLKDSGILFVDDDILFLALLRECFMQRGIVIQCAENGEDALQMIQQRPFALLLTDLQMPGMDGLELAGKARKLMPDLPIVLCTGAVTPEVCALAEEIGIAQVVRKPIRFSELFAIVGNIVSLQQTEGHHHHHH | soluble
MSLSIYQASIPTFLRTLGNLSAILKKAAAHAEAKNIDPRIFIDARLAPDMFPLARQVQIASDAAKGAGARLAGLEVPSYADTETTFDELQARIARTVEFLEGIREEQLDGAEERNVTLKVRGQEISFNGRDFLFGFALPNFFFHVTTAYAILRHNGVELGKMDFLGGA | not soluble
MGSDKIHHHHHHMSRFVLITPDVSFDGRLRQAVAGGLQGGVQTFFTSLLPADPNDLFAHLDQERPEVLILGPDVPVEEALRLATVMNVRFPELSVILASEPDPDFILQAMRAGIRDILSPDSDAAQIRVLLERASQQFAGRYRVQAAAPMTDTNKGLVIGVFSPKGGVGKTTIATNIAVGLGKIAPMSVVIVDLDLQFGDVASALYLDPQHTVTDAVSPAASQDSLVLKAFLTVHPASIYAVCAPPTPVDADEITPEQVSRLLEQLSEQFQYVVVDTAPGLPEIGLAAMEQCTDVVWVSGMDIPSVRGLRSGLDVLRQLDILPETRHVVLNMADSKLGLTVQDLESTIGAPVDVSIPRSRAVALSTNRGIPVLQESAKDPATKGLNQLVNRFNPAWRATSQRKLHRRVVV | not soluble
MSLNFIDEFRDKESILALKKLIEQELKNPINIMEICGGHTHSIMKYALPSILPKEINFIHGPGCPVCVMPRVRIDTAIKLASMKDTIFCTLGDLLRVPGSEISLLDLRAKGADVRALYSPLEVLEIAKQNLNKNIIFFAIGFETTTPMSALLLQKVIEEKINNVFFHINHITVPAPVEAIMNDENVKINAFLGPSHVSVITGYGIYEPLAAKFKTPIAVSGFEPVDILESVLNIIKQSNEGTFKVYNQYKRAVSKEGNVKAQNLVKKYFRVCDFEFRGLGLIKNGGLELKEEFSAYDASKKFDCTVQSKNESKACICGQILRGLAKPYDCKVFGKACTPRSPIGSCMVSGEGACAAYYKYSKVNAEGHHHHHH | soluble
MGKPMQVSRYWRHFREKYRLIGGKCENGHLLFPKRPICPICGSRNIEEFQFSGKGKVITWTIVRNPPSGFEYYKPYPLALVQLEEGPVVLAQLTDVEPEEIKEGMEVEMVTRKIREFDEDGLILYGYKFRPIIKSELEHHHHHH | soluble
